What follows are sequences tested on Escherichia coli TOP10 (assay: shrunken log2 fold change of peptide-encoding DNA abundance (4.5 h post-induction vs induction); higher = less antimicrobial activity (less host growth inhibition)). Conditions: time post-induction: 4.5 h; library: site-saturation at positions 5, 18, 19, 20.
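Also: peptides expressed intracellularly from a pBAD plasmid library in pooled LB shake-flask culture, induced with 0.3% L-arabinose, DNA abundance read by NGS, three biological replicates, DESeq2 with apeglm shrinkage.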

Sequence | shrunken log2 fold change
RRIRFRPPRLPRPRPRPVWQPRP | 0.0042
RRIRDRPPRLPRPRPRPFQPPRP | 0.0201
RRIRQRPPRLPRPRPRPLHMPRP | -0.384
RRIRTRPPRLPRPRPRPIQFPRP | -0.0251
RRIRPRPPRLPRPRPRPWYEPRP | -0.441
RRIRCRPPRLPRPRPRPVNHPRP | -0.444
RRIRFRPPRLPRPRPRPKVYPRP | -0.382
RRIRVRPPRLPRPRPRPRDHPRP | 0.172
RRIRVRPPRLPRPRPRPCGWPRP | 0.302
RRIRRRPPRLPRPRPRPERRPRP | 0.418
RRIRARPPRLPRPRPRPDMDPRP | 0.3
RRIRDRPPRLPRPRPRPFYHPRP | -0.124
RRIRTRPPRLPRPRPRPKTGPRP | -0.104
RRIRIRPPRLPRPRPRPVQSPRP | -0.168
RRIRFRPPRLPRPRPRPFDMPRP | -0.294
RRIRIRPPRLPRPRPRPDHLPRP | -0.846
RRIRPRPPRLPRPRPRPLFQPRP | -0.0669
RRIRLRPPRLPRPRPRPYDKPRP | -0.951
RRIRPRPPRLPRPRPRPQVQPRP | -0.148
RRIRWRPPRLPRPRPRPWFMPRP | -0.222
RRIRDRPPRLPRPRPRPQCNPRP | -0.0196
RRIRMRPPRLPRPRPRPESCPRP | 3.68
RRIRKRPPRLPRPRPRPKMMPRP | 0.421
RRIRQRPPRLPRPRPRPKILPRP | -0.0155
RRIRQRPPRLPRPRPRPCLDPRP | -0.0986

Sequence | shrunken log2 fold change
RRIRRRPPRLPRPRPRPGWLPRP | 0.427
RRIRKRPPRLPRPRPRPQETPRP | -0.0167
RRIRLRPPRLPRPRPRPSYGPRP | -0.585
RRIRKRPPRLPRPRPRPRCDPRP | 0.288
RRIRERPPRLPRPRPRPHDNPRP | -0.227
RRIRDRPPRLPRPRPRPDERPRP | 0.0336
RRIRIRPPRLPRPRPRPPGIPRP | -0.147
RRIRFRPPRLPRPRPRPWYWPRP | -0.34
RRIRYRPPRLPRPRPRPECFPRP | -0.288
RRIRMRPPRLPRPRPRPGETPRP | 0.0143
RRIRCRPPRLPRPRPRPTIQPRP | -0.508
RRIRERPPRLPRPRPRPMGSPRP | 0.00489
RRIRKRPPRLPRPRPRPLFHPRP | 0.0214
RRIRQRPPRLPRPRPRPDATPRP | 0.495
RRIRIRPPRLPRPRPRPMTRPRP | -0.0885
RRIRYRPPRLPRPRPRPPQIPRP | -0.178
RRIRIRPPRLPRPRPRPYWAPRP | -1.07
RRIRKRPPRLPRPRPRPAANPRP | 0.647
RRIRVRPPRLPRPRPRPIRFPRP | -0.0571
RRIRERPPRLPRPRPRPDEHPRP | -0.274
RRIRMRPPRLPRPRPRPAGPPRP | 0.484
RRIRVRPPRLPRPRPRPICHPRP | -0.224
RRIRKRPPRLPRPRPRPETHPRP | 0.736
RRIRERPPRLPRPRPRPKMFPRP | -0.000277
RRIRCRPPRLPRPRPRPQEGPRP | -0.0193

Sequence | shrunken log2 fold change
RRIRDRPPRLPRPRPRPQQMPRP | -0.0585
RRIRSRPPRLPRPRPRPRCPPRP | 0.177
RRIRIRPPRLPRPRPRPVIWPRP | 0.204
RRIRIRPPRLPRPRPRPRDGPRP | 0.575
RRIRHRPPRLPRPRPRPHFMPRP | 0.00955
RRIRIRPPRLPRPRPRPGHVPRP | -0.0457
RRIRYRPPRLPRPRPRPWYFPRP | -0.15
RRIRFRPPRLPRPRPRPCVMPRP | -0.143
RRIRIRPPRLPRPRPRPSDFPRP | -0.611
RRIRFRPPRLPRPRPRPRCDPRP | 0.0576
RRIRFRPPRLPRPRPRPTMSPRP | -0.236
RRIRWRPPRLPRPRPRPDYSPRP | -0.106
RRIRDRPPRLPRPRPRPAMWPRP | 1.24
RRIRARPPRLPRPRPRPDSEPRP | 0.481
RRIRYRPPRLPRPRPRPKIRPRP | 0.0107
RRIRLRPPRLPRPRPRPGMYPRP | -0.115
RRIRIRPPRLPRPRPRPQPYPRP | -0.84
RRIRARPPRLPRPRPRPPAGPRP | 0.883
RRIRLRPPRLPRPRPRPLQTPRP | 0.101
RRIRIRPPRLPRPRPRPFHGPRP | -0.146
RRIRDRPPRLPRPRPRPKVEPRP | 0.109
RRIRYRPPRLPRPRPRPRSKPRP | -0.439
RRIRDRPPRLPRPRPRPRMFPRP | -0.0535
RRIRLRPPRLPRPRPRPAEFPRP | -0.011
RRIRVRPPRLPRPRPRPMSEPRP | 0.0558

Reference: the supplement of paper PMC9112550, “Optimization of the antimicrobial peptide Bac7 by deep mutational scanning” (BMC Biology, 2022)
